# Source: the DeepSol protein solubility set
# Assay: soluble on expression in E. coli; label from the status in PepcDB or PDB records
row,Sequence,soluble on expression in E. coli
1,MIIERLVGNLRDLNPLDFSVDHVDLEWFETRKKIARFKTRQGKDIAIRLKDAPKLGLSQGDILFKEEKEIIAVNILDSEVIHIQAKSVAEVAKICYEIGNRHAALYYGESQFEFKTPFEKPTLALLEKLGVQNRVLSSKLDSKERLTVSMPHSEPNFKVSLASDFKVVVK,not soluble
2,MSDLHTKLGSGMNKLQEGIEQGKMKLQVAQEIAQLKKGMQVQMQKKAEVLLEVGQQVYVQLRGSGVNEASLKEMIAPVQEFDVAIYQARKRIVELQKQQGEKATCECGGPLSINDKFCGSCGKPNPMLTVENEGETVNCISCNEHIDKNSTYCPVCGIKQSGE,not soluble
3,LPAGLYFVGTPIGSARDITLRALDVLASAEVIAAEDTRSLRHLLDIHGVPLDGRRVLAYHDHSGAGAQARLLEALAEGKSVAYASEAGMPLIADPGFELSRAAAEAGHMVTCAPGPS,not soluble
4,MGSDKIHHHHHHMQLSSRPSSLVLDHHQNKFLTPWSDPADPHILFPIQPLEQLLVQLGWPDPQAWLIHWQKRGGISLKRPFWHPSTRTDWIWGLGLPLLTLVEGCLGKSDRSLLGITGLPGCGKTSLGCWLEAAAGELGWPIKVISLDDFYWPFPQLDRSMSGNPWRVPRALPGSHDLDLLASVLDTWQSTGHLKAPMFDKALRHGRGDRDGWHLSDPKVLVIEGWILGCLPCKFAEAGQFSDQLVPPLNKLEHDYRLVVQEALNGYVPIWDRLDTLWHLKAIDPSSTRIWKANQESLMQLNRGVCLDQESFEGFVRMILASIPLTCLDGIEADVVATLTPARQLMWVGQRGYQDSSSSDSCIG,not soluble
5,MKKLPNIHPGEVLMEEFLIPMEITSYRLAKEIGIPQTRVSEITKGRRRITADTALRLSKYFGNSPKFWLGLQDDYDIEEESQLIAEELKAIKKVVV,not soluble
6,MGSDKIHHHHHHMSDVSPARALGIDFGTSNSTVGWHRPGVESLIALEDGKITLPSVVFFNIEERRPVYGRLALHEYLEGYEGRLMRSLKSLLGSKLIKHDTSVLGSALPFKDLLGMFIGELKKRAEAAAGREFDQVVLGRPVFFVDEDPAADQEAEDTLAEVARKIGFKDVSFQYEPIAAAFDYESSISREELVLIVDIGGGTSDFTLIRLSPERHLVAERQSDILATGGVHIGGTDFDKQLSLQGVMPLFGYGSRMKSGALMPTSYHLNLATWHTINALYSQKSQLALGSMRYDIEDSFGIDRLFKLIEQRAGHWLAMEVEASKIELTEHDSRHIDLRRVEPELTAELTRTLFEEAIEGLLERVRGSVTELLAKAGVSEGQVDTVFFTGGSSGIPALRNSVSAMLPNARHVEGNIFGSIGSGLAIEARKRYGAA,not soluble
7,MTVKQTVEVTNKLGMHARPAMKLFELMQGFDAEVLLRNDEGTEAEANSVIALLMLDSAKGRQIEIEATGPQEVEALAAVIALFNSGFDED,not soluble
8,MENKSIAIFIDAENIPAKYAKSIFDIASDYGEVIIKRIYGDWTQKNIQGWREQIAEYSLIAMQQFNFAANKNSSDMYLITEIMSIFYEKNIDIFVIVSSDSDYTSLIQKLRENKKQVIGMGLEKSIKSYVNAFSEFFYLDKDESKKEDILSKDYLRALINITEQLIDEKGRAEYAQIRTNMNRKYSDFHPQNYGFKNFRALIQKFLPKMKKFEEEREKNIYFLVKKDYESYYLEHHHHHH,not soluble
9,MRHLPTTDIQSTLRRGKSVEQFMGRSPASRNHIRHIELRPSNNLVEVWVYDVEDQGNEEWLDLYDFNELEKGEADLPAATFVDADAAIAYAQEALSANPSRWVNLGIAQSEYLDYIRSGRPDRWPAAA,not soluble
10,MKEENVGDFTLHYGVFEEVEPEELRNLADMLRQRTKKDVVFIASRKGDKINFVIGVSKEISDKVNAKEVIREVGKVLKGGGGGRADLAQGGGKAPDKFPEAVKLLKEILSG,soluble
11,MEWKNDVLRFSGFDYGVSKIRMLNEELHSECDQLSKSNESTSLKDITEEPKDEKLESIIETAKNKESEKEENSHVFNDCEFDAMTERKIENFYFRNVEQAEKKMKHLTTLKSKWSEPWQTGEEIVAKVYLKPKNHENPWKDGTFQEKEAVEMQKNGKKHGRCIIS,not soluble
12,MGHHHHHHSHMTDQTYCDRLVQDTPFLTGHGRLSEQQVDRIILQLNRYYPQILTNKEAEKFRNPKASLRVRLCDLLSHLQRSGERDCQEFYRALYIHAQPLHSRLPSRHALRKFHITNHACLVLARGGHPSLPLMAWMSSMTTQVCCSPGLASPLASAPPQRPPSGPEGRVWQAQAVQMLVSVSHFLPLPPSLSHGSFHTAWGILYVHSCPSFSNLIPRGSLHVCVDSNLVPTAAWRS,not soluble
13,MNKQLTTIGIMASLFATSSFATDWTQIEKEAQGQTVYFHAWGGSQEINHYLQWANKELQSKYQVTLKHVKVSDISETIPRLIAEKAADKNTNGSVDMVWINGENFKSMKDNQLLFGPFTENLPSWKYVDKMLPIDVDFSEPTDGLEAPWGVGQLVFIHDSENLTNPPHSFAEMLSYAQKKPNSLSYPRPPEFHGTSVLKSMLIELTNNNPALQKPVSESDFNAVTAPLWDYLEKFHKVAWRGGKQFPAGTSETIQLLDDGQLDLAVTFNPNAVYSAQANGNLANTTKAYAMDSGALSNIHFLAIPWNAKASAGAQVAINFLLSPEAQSRKGDLNVWGDPSVLSSKYLTGSAKNTQQFKSVSEPHPSWQAAIEKEWLKRFGS,soluble
14,MGHHHHHHSHMNRLPDDYDPYAVEEPSDEEPALSSSEDEVDVLLHGTPDQKRKLIRECLTGESESSSEDEFEKEMEAELNSTMKTMEDKLSSLGTGSSSGNGKVATAPTRYYDDIYFDSDSEDEDRAVQVTKKKKKKQHKIPTNDELLYDPEKDNRDQAWVDAQRRGYHGLGPQRSREQQPVPNSDAVLNCPACMTTLCLDCQRHESYKTQYRAMFVMNCSINKEEVLRYKASENRKKRRVHKKMRSNQEDAAEKAETDVEEIYHPVMCTECSTEVAVYDKDEVFHFFNVLASHS,not soluble
15,MGSDKIHHHHHHMMTEMQQRAQLHRQIWKIADEVRGAVDGWDFKQYVLGTLFYRFISENFTDYMQAGDSSIDYAAMPDSIITPEIKDDAVKVKGYFIYPGQLFCNIAAEAHQNEELNTKLKEIFTAIESSASGYPSEQGIKGLFDDFDTTSSRLGSTVADKNKRLAAVLKGVAELDFGNFEDHRIDLFGDAYEYLISNYAANAGKSGGEFFTPQSVSKLIARLAVHGQEKVNKIYDPACGSGSLLLQAKKQFDEHIIEEGFFGQEINHTTYNLARMNMFLHNVNYNKFHIELGDTLTNPKLKDSKPFDAVVSNPPYSIDWIGSDDPTLINDDRFAPAGVLAPKSKADFAFILHALNYLSGRGRAAIVSFPGIFYRGGAEQKIRQYLVEGNYVETVIALAPNLFYGTCIAVNILVLSKHKDNTDIQFIDASGFFKKETNNNVLTEEHIAEIVKLFADKADVPHIAQNAAQQTVKDNGYNLAVSSYVEAEDTREVIDIRQLNAEISETVAKIERLRREIDEVIAEIET,not soluble
16,MADNLPSDFDVIVIGTGLPESIIAAACSRSGQRVLHVDSRSYYGGNWASFSFSGLLSWLKEYQENNDVVTENSMWQEQILENEEAIPLSSKDKTIQHVEVFCYASQDLHKDVEEAGALQKNHASVTSAQSAEAAEAAETSCLPTAVEPLSMGSCEIPAEQSQCPGPESSPEVNDAEATGKKENSDAKSSTEEPSENVPKVQDNTETPKKNRITYSQIIKEGRRFNIDLVSKLLYSRGLLIDLLIKSNVSRYAEFKNITRILAFREGTVEQVPCSRADVFNSKQLTMVEKRMLMKFLTFCVEYEEHPDEYRAYEGTTFSEYLKTQKLTPNLQYFVLHSIAMTSETTSCTVDGLKATKKFLQCLGRYGNTPFLFPLYGQGELPQCFCRMCAVFGGIYCLRHSVQCLVVDKESRKCKAVIDQFGQRIISKHFIIEDSYLSENTCSRVQYRQISRAVLITDGSVLKTDADQQVSILTVPAEEPGSFAVRVIELCSSTMTCMKGTYLVHLTCMSSKTAREDLERVVQKLFTPYTEIEAENEQVEKPRLLWALYFNMRDSSDISRDCYNDLPSNVYVCSGPDSGLGNDNAVKQAETLFQQICPNEDFCPAPPNPEDIVLDGDSSQQEVPESSVTPETNSETPKESTVLGNPEEPSE,soluble
17,MNLRSRLVNATERAVLFQIFKDVQNDPEKYDNAVEAICESIDYFGKFLTDSEYLTQIKPILDTQCPTKSIICFSKCLTKVSTDINTTTFRDVITMLDWLKYVVEKSLTSAICSSLKVKETDVSAVQLYREFASACSNIPEKVSNCCAKALSGEHVKYINTVKWIFKMNLVQGIQKAMLLAHDDIVTAAPFTSFYGSGGPYMKTVAEIISSGRNIDITNKDGLLVQMIEWIGSLNNFDSQWRRMMFLIFQEPTYQGIQVHESLLTTLFLISKSDQILKRCIEATDLTGTLKRVVMVKLPFQRVLKRKTIEILINFVYRTKEQFAIQLLETSVKIWSDLNYAKSAPESQERHIVRMILYLVHLFRTCSSIDWESLFLNSMDGVHCRMSMLPMYVQSGIFVNQALCKQATKHRSKTHGSDEQPPETLEENKFVSSEVGKIWFEEMTSILEHGFNSSTVKDSERVRETANEITKDDSGEEFEETNAQRLQNNKDSAAITSKNNLRLDSDDDEDFPDYQVNESEKIFKNLEIGEEPKNKVTPPAYIADAFEMLLEKEKYEVFEAAFFNITNLINRRPIGFPQIAEKLFIRILHLQNNFGTPKFKETVDEIAVACITQRPEIVPSVVRLIIAPGQGFSIKQRLLHYIHNAADGMGALDKKLEECVMAQQLRIGGPTLSIILHRTINTDYDDEDEDPHRLLVPEWRRMVDARIAANTRRIGTTREPPRAGVVNRLAQAAKYMFYPLLVLPRGENASLLGKDSDLLASLIMVASMVYVRCGVCPQIHRMSSELISYATPHRFSENAKLRTACIIAHLNVTTLLPGDLMDELFDVPALIGWFDWANSVLVNASSSQLEKDMTRQFGHSVTKHLQRYHPAVLQHQDV,not soluble
18,MGSDKIHHHHHHMTGFYEFFSLPDRVEVVCPLCDGCATFTYAHVLQIEKKDAHLFENEQFEIKLFNQRFAHKWPCVLFFPPLFGAVSWREKFPEKYQGASTWEHRANSAFTDGTDLGLICCHQCMAKQKHQLEWPQDAFYSIEFKGHLLWAFNKMMMQQIRDYIQAKDRDAVFASEPIVIRHLPTVFKLAKNREGLVKKINKLIYRP,not soluble
19,MGHHHHHHSHMIKRSSECNPLLQEPIASAQFGATAGTECRKSVPCGWERVVKQRLFGKTAGRFDVYFISPQGLKFRSKSSLANYLHKNGETSLKPEDFDFTVLSKRGIKSRYKDCSMAALTSHLQNQSNNSNWNLRTRSKCKKDVFMP,soluble
20,MGSDKIHHHHHHMIRFRNFWLPIWNRKMSMKNLYENDLLYRTTGPALRPGGFELTDWAVEHCRFQAGDRILDVGCGRGATVNRLRSHYHLEAYGIDPSATLLTLGQETYPDLPLSKGRGEDIPFTNSCFDGVFVECSLSLMTDPDQALSEIRRVLKVKGKLIIHDVYARNPQGTPDLRELNIGTCIRNALVKEDLEHGLESKGLRTIHWQDHSPLLNRLMMELIMTHGSMSAFWLKSTDCSADPNRVQAALKKAKVGYFQLIAEKEAEKEAEHCPVR,not soluble
21,MSGTRKKALLKVIILGDSGVGKTSLMNQYVNRRFSNQYKATIGADFLTRDVNIDDRTVTLQIWDTAGQERFQSLGVAFYRGADCCVLAFDVTNAASFKSLDSWRDEFLIQASPRDPDHFPFVLLGNKVDLESQRAVSSKRAQSWCQTKGNIPYYEVSAKEALNVEAAFLAIARDALARESQETNDFPEFPDQIRLNPNQQNQQNSGCNC,not soluble
22,MSLEKLMALYNISSPSGKEGKIAGFIIGELRRMGIPFRQDRYGNIYAVKGNRESYPCVVAHMDEVHRRKTGSYAAHLVADSMIVGYDHKRKRMTGIGADDKNGIWICLKCLEDFKAVKCAFFVQEEIGCIGSGHADMSFFSDCRFVIQCDRKGNGDMVTQINGMRLCSNEFISAVDPRKYGYKPAQGLATDVAALKRNGLEVSCVNLSCGYYEPHTDNEYTVLADLCKCYRFVRHIICCHKEGHHHHHH,soluble
